Measured values as given in patent publication US20240368263A1 (PROMETHEUS BIOSCIENCES, published 2024).
Changes are numbered by the printed parent chain. Names may count otherwise.

T1: human TL1A (endogenous, human whole blood assay) (human, UniProt O95150 1-251, limits assumed)
T1 sequence (looked up): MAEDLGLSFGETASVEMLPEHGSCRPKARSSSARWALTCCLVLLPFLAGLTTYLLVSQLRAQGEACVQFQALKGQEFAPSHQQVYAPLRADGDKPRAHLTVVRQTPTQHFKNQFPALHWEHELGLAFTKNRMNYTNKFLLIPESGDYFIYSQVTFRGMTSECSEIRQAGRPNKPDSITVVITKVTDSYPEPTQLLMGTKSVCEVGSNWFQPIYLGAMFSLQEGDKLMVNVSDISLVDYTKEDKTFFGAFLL

T2: cynomolgus TL1A (endogenous, cynomolgus whole blood) (cynomolgus monkey, UniProt G7PRK8 1-251)
T2 sequence: T1 sequence (looked up) with R34C, L47V, F69L, A71D, F110L, I149V

T3: human TL1A (Fitzgerald, Prod. #30R-AT070) (human, UniProt O95150 72-251, limits assumed, biotinylated with EZ-Link Sulfo-NHS-LC-Biotin where used as soluble antigen)
T3 construct: also called TNFSF15; biotinylated human TL1A
T3 sequence (looked up): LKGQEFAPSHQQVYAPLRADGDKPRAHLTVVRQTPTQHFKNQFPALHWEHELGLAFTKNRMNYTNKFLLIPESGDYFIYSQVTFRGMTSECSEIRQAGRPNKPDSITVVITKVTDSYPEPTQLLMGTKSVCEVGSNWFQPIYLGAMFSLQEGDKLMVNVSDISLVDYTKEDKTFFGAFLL

B1: clone 23, modified IgG1 / kappa (antibody)
heavy: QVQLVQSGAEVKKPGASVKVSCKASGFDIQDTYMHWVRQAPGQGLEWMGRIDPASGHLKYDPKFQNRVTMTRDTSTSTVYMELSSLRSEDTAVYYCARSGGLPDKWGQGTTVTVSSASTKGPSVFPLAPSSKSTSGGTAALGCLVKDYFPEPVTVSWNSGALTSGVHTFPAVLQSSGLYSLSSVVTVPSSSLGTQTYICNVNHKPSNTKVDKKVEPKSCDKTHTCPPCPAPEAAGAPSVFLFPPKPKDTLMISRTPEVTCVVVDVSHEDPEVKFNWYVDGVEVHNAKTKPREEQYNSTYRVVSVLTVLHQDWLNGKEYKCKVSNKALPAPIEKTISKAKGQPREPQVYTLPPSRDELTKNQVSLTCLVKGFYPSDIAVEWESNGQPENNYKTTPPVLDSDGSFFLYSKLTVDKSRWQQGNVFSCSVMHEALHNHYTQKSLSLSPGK
light: EIVLTQSPGTLSLSPGERATLSCRASSSVSYMYWYQQKPGQAPRLLIYATSNLASGIPDRFSGSGSGTDFTLTISRLEPEDFAVYYCQQWEGNPRTFGGGTKLEIKRTVAAPSVFIFPPSDEQLKSGTASVVCLLNNFYPREAKVQWKVDNALQSGNSQESVTEQDSKDSTYSLSSTLTLSKADYEKHKVYACEVTHQGLSSPVTKSFNRGEC
B2: clone 34, modified IgG1 / kappa (antibody)
heavy: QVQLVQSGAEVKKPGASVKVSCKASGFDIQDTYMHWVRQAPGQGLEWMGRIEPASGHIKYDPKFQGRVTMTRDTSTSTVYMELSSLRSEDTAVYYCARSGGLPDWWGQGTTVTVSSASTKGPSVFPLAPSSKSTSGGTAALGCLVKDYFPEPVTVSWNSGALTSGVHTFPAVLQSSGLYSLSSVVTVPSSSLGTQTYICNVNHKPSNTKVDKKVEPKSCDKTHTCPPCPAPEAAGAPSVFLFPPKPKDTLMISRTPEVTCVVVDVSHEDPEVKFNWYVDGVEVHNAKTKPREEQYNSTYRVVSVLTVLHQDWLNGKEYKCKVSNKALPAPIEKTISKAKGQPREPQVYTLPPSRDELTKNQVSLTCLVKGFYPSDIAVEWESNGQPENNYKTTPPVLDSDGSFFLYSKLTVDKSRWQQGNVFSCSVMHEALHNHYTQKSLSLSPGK
light: B1 light
B3: clone 53, modified IgG1 / kappa (antibody, V domains shown)
VH: QVQLVQSGAEVKKPGASVKVSCKASGFDIQDTYMHWVRQAPGQGLEWMGRIEPASGHLKYDPKFQERVTMTRDTSTSTVYMELSSLRSEDTAVYYCARSGGLPDKWGQGTTVTVSS
VL: EIVLTQSPGTLSLSPGERATLSCRASSSVSYMYWYQQKPGQAPRLLIYATSNLASGIPDRFSGSGSGTDFTLTISRLEPEDFAVYYCQQWEGNPRTFGGGTKLEIKR
B4: clone 14, modified IgG1 / kappa (antibody)
heavy: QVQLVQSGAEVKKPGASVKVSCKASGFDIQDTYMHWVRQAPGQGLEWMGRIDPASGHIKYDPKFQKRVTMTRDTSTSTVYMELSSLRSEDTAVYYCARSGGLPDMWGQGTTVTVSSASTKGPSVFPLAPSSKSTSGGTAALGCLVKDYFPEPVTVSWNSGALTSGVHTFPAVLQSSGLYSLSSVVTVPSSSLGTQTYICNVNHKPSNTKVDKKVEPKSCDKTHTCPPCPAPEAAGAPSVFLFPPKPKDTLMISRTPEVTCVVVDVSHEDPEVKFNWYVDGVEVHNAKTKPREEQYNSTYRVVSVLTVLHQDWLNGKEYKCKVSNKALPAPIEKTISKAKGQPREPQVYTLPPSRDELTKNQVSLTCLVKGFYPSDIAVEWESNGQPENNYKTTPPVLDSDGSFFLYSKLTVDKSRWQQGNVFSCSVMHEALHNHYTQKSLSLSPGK
light: B1 light with E91Q
B5: 1D1 anti-TL1A antibody (antibody, V domains shown)
VH: QVQLVQSGAEVKKPGASVKVSCKASGYDFTYYGISWVRQAPGQGLEWMGWISTYNGNTHYARMLQGRVTMTTDTSTRTAYMELRSLRSDDTAVYYCARENYYGSGAYRGGMDVWGQGTTVTVSS
VL: EIVLTQSPATLSLSPGERATLSCRASQSVSSYLAWYQQKPGQAPRLLIYDASNRATGIPARFSGSGSGTDFTLTISSLEPEDFAVYYCQQRSNWPWTFGQGTKVEIK
B6: murine 5C3D11 monoclonal antibody (antibody, V domains shown)
VH: EVQLQQSGAELVKPGASVKLSCTASGFDIQDTYMHWVKQRPEQGLEWIGRIDPASGHTKYDPKFQVKATITTDTSSNTAYLQLSSLTSEDTAVYYCSRSGGLPDVWGAGTTVTVSS
VL: QIVLSQSPAILSASPGEKVTMTCRASSSVSYMYWYQQKPGSSPKPWIYATSNLASGVPDRFSGSGSGTSYSLTISRVEAEDAATYYCQQWSGNPRTFGGGTKLEIK
B7: 12835 (humanized 5C3D11) antibody, IgG format (antibody, V domains shown)
VH: B3 VH with V20L, E52D, L58T, E66V, R72T, A97S, K105V
VL: EIVLTQSPGTLSLSPGERVTMSCRASSSVSYMYWYQQKPGQAPRPWIYATSNLASGVPDRFSGSGSGTDYTLTISRLEPEDFAVYYCQQWSGNPRTFGGGTKLEIK
B8: L8 (CDR graft) Fab (Fab, V domains shown)
VH: B3 VH with E52D, L58T, E66V, K105V
VL: B7 VL with V19A, M21L, P45L, W46L, V57I, Y70F
notes: Fab; also called CDR graft clone L8; CDR-grafted variant
B9: clone 14, IgG2 / kappa (antibody)
heavy: QVQLVQSGAEVKKPGASVKVSCKASGFDIQDTYMHWVRQAPGQGLEWMGRIDPASGHIKYDPKFQKRVTMTRDTSTSTVYMELSSLRSEDTAVYYCARSGGLPDMWGQGTTVTVSSASTKGPSVFPLAPCSRSTSESTAALGCLVKDYFPEPVTVSWNSGALTSGVHTFPAVLQSSGLYSLSSVVTVPSSNFGTQTYTCNVDHKPSNTKVDKTVERKCCVECPPCPAPPVAGPSVFLFPPKPKDTLMISRTPEVTCVVVDVSHEDPEVQFNWYVDGVEVHNAKTKPREEQFNSTFRVVSVLTVVHQDWLNGKEYKCKVSNKGLPAPIEKTISKTKGQPREPQVYTLPPSREEMTKNQVSLTCLVKGFYPSDIAVEWESNGQPENNYKTTPPMLDSDGSFFLYSKLTVDKSRWQQGNVFSCSVMHEALHNHYTQKSLSLSPGK
light: B1 light with E91Q
B10: L3-4 (S92H) Fab (Fab, V domains shown)
VH: B3 VH with E52D, L58T, E66V, K105V
VL: B7 VL with V19A, M21L, P45L, W46L, V57I, Y70F, S91H
notes: Fab; also called 18-7 S92H light chain with 21-3 heavy chain
B11: L3-4 (S92Q) Fab (Fab, V domains shown)
VH: B3 VH with E52D, L58T, E66V, K105V
VL: B7 VL with V19A, M21L, P45L, W46L, V57I, Y70F, S91Q
notes: Fab; also called 18-7 S92Q light chain with 21-3 heavy chain
B12: H3-7 (V102M) Fab (Fab, V domains shown)
VH: B3 VH with E52D, L58T, E66V, K105M
VL: B7 VL with V19A, M21L, P45L, W46L, V57I, Y70F
notes: Fab; also called 21-3 V102M heavy chain with 18-7 light chain
B13: L3-4 (S92N) Fab (Fab, V domains shown)
VH: B3 VH with E52D, L58T, E66V, K105V
VL: B7 VL with V19A, M21L, P45L, W46L, V57I, Y70F, S91N
notes: Fab; also called 18-7 S92N light chain with 21-3 heavy chain
B14: L3-4 (S92E) Fab (Fab, V domains shown)
VH: B3 VH with E52D, L58T, E66V, K105V
VL: B7 VL with V19A, M21L, P45L, W46L, V57I, Y70F, S91E
notes: Fab; also called 18-7 S92E light chain with 21-3 heavy chain
B15: H3-7 (V102Q) Fab (Fab, V domains shown)
VH: B3 VH with E52D, L58T, E66V, K105Q
VL: B7 VL with V19A, M21L, P45L, W46L, V57I, Y70F
notes: Fab; also called 21-3 V102Q heavy chain with 18-7 light chain
B16: H3-7 (V102K) Fab (Fab, V domains shown)
VH: B3 VH with E52D, L58T, E66V
VL: B7 VL with V19A, M21L, P45L, W46L, V57I, Y70F
notes: Fab; also called 21-3 V102K heavy chain with 18-7 light chain
B17: H3-7 (V102W) Fab (Fab, V domains shown)
VH: B3 VH with E52D, L58T, E66V, K105W
VL: B7 VL with V19A, M21L, P45L, W46L, V57I, Y70F
notes: Fab; also called 21-3 V102W heavy chain with 18-7 light chain
B18: L3-4 (S92D) Fab (Fab, V domains shown)
VH: B3 VH with E52D, L58T, E66V, K105V
VL: B7 VL with V19A, M21L, P45L, W46L, V57I, Y70F, S91D
notes: Fab; also called 18-7 S92D light chain with 21-3 heavy chain

Biological target: T1, human TL1A (endogenous, human whole …)
Assay: cell-based or functional assay

With B1 as the binder, how does the “Potency (IC50, nM), human whole blood assay, mean” value read?
Its value is 0.64 nM.

B2 was tested. Which “Potency (IC50, nM), human whole blood assay, mean” value did it give?
Its value is 0.24 nM.

How did the “Potency (IC50, nM), human whole blood assay, mean” value turn out when B3 was run?
The value was 0.59 nM.

Which “Potency (IC50, nM), human whole blood assay, mean” value does the source give for B4 here?
Its value is 0.3 nM.

B5 was tested. Which “Potency (IC50, nM), human whole blood assay, mean” value did it give?
Its value is 0.27 nM.

Biological target: T2, cynomolgus TL1A (endogenous, cynomolgus …)
Assay: cell-based or functional assay

For B1, which “Potency (IC50, nM), cynomolgus whole blood assay, mean” value is on record?
The value was 0.72 nM.

With B2 as the binder, how does the “Potency (IC50, nM), cynomolgus whole blood assay, mean” value read?
Its value is 0.21 nM.

How did the “Potency (IC50, nM), cynomolgus whole blood assay, mean” value turn out when B3 was run?
Its value is 1.32 nM.

Which “Potency (IC50, nM), cynomolgus whole blood assay, mean” value does the source give for B4 here?
The value was 0.28 nM.

For B6, which “Potency (IC50, nM), cynomolgus whole blood assay, mean” value is on record?
Its value is 0.18 nM.

Biological target: T1, human TL1A (endogenous, human whole …)
Assay: cell-based or functional assay
Remark: another data set of the same source

For B3, which “fold greater potency towards human TL1A than cynomolgus TL1A, whole blood assays” value is on record?
Its value is roughly 2 fold.

With B6 as the binder, how does the “IC50, inhibition of IFN-γ production, human whole blood assay” value (“IC50, inhibition of IFN-γ production” below) read?
The value was 1.38 nM.

How did the “IC50, inhibition of IFN-γ production” value turn out when B7 was run?
The value was 9.28 nM.

Biological target: T3, human TL1A (Fitzgerald, Prod. …)
Assay: capture lift hit at 200 pM b-TL1A, unmutated sequence

Does B8 bind?
Result: binds

Biological target: T1, human TL1A (endogenous, human whole …)
Assay: cell-based or functional assay
Remark: another data set of the same source

B1 was tested. Which “IC50, inhibition of IFN-γ production” value did it give?
The value was 0.41 nM.

With B9 as the binder, how does the “IC50, inhibition of IFN-γ production” value read?
Its value is 0.35 nM.

For B2, which “IC50, inhibition of IFN-γ production” value is on record?
The value was 0.18 nM.

B3 was tested. Which “IC50, inhibition of IFN-γ production” value did it give?
The value was 0.39 nM.

For B4, which “IC50, inhibition of IFN-γ production” value is on record?
The value was 0.19 nM.

Biological target: T3, human TL1A (Fitzgerald, Prod. …)
Assay: ELISA

Does B10 bind?
Result: binds

Does B11 bind?
Result: binds

Does B12 bind?
Result: binds

Does B13 bind?
Result: binds

Does B14 bind?
Result: binds

Does B15 bind?
Result: binds

Does B16 bind?
Result: binds

Does B17 bind?
Result: binds

Does B18 bind?
Result: binds
